{"source": "patent US9555076B2", "about": "“Neuregulin based methods and compositions for treating cardiovascular diseases” (Zensun (Shanghai) Science & Technology, Co., Ltd., priority 2002, dated 2017)", "molecules": {"B1": {"name": "rhNRG-1 β: Recombinant human neuregulin fragment of 61 amino acid (SEQ ID NO:4), 3 disulfide bonds, expressed in E. coli (protein, listed as Homo sapiens)", "chain": "SHLVKCAEKEKTFCVNGGECFMVKDLSNPSRYLCKCPNEFTGDRCQNYVMASFYKAEELYQ", "modifications": "disulfide (positions not given here)"}}, "key": {"[1]": {"tested_on": "heart failure in rat caused by ligation of coronary artery", "test": "Nagar-Oslen staining of ischemic hypoxic myocardium", "assay_type": "in vivo, SD rat", "text": "After fixed with 10% formaldehyde, myocardium of the rat was longitudinally cut with equal distance into 3 slices, conventionally embedded with paraffin, section made, HE stained, image analysis for area of fibrotic region of the heart, counted the number of capillary in the fibrotic lesion (counting unit: piece/mm^2); Nagar-Oslen stained, studied the size of ischemic hypoxic region in the myocardium.\nIn Nagar-Oslen stained section, normal myocardium stained with light yellow color, while ischemic hypoxic area stained deeper with reddish color. Ischemic hypoxic changes could be analyzed with this method and comparison of qualitative and semi-quantitative test could be made."}, "[2]": {"tested_on": "acute myocardial injury caused by viral (Coxsackie B3) infection in mice", "test": "Echocardiography heart function, mice infected with Coxsackie B3 virus", "assay_type": "in vivo, BALB/C mice", "protocol": "Drug administration of both the testing drug group and the model group was intravenous injection into the tail vein of mice, once every day (qd), for consecutive 5 days, volume of each of the drug administered was 0.2 ml/animal.\n0.2 ml of 100×TCID50 CVB3 provided by Zhong Shan Hospital affiliated to Fudan University was injected intra-abdominally and established myocarditis model. Within the following week, the mouse manifested pilo-erection, depilation, emaciation, dullness and death, about half of the tested animals died at the 8th day.\nIntravenous injection of the testing drug into the tail vein was carried out the same day of intra-abdominal viral infection in mice, the injection was performed for consecutive 5 days, animal survival rate was monitored, after completion of the experiment, echocardiograph, myocardial pathologic examination, serum troponin determination were carried out.\nChest depilating was performed at the 7th day of viral injection, then the mouse was fixed on special made fixed mount and echocardiograph was carried out with S12 high-frequency probe, the main index included: • EF: ejection fraction of left ventricle, being major index reflecting ejection function of left ventricle; • FS: shortening fraction of left ventricle, index reflecting contraction function of left ventricle; • LVDd: diastolic maximal inner diameter (cm); • LVDs: systolic minimal inner diameter (cm). 7.3.3.2 Determination of Serum Troponin I (cTnI) in Mice\n• Normal mice control group, model group and testing drug group were set up; • Normal mice control group (n=10); • Model group (n=20): Prepared buffer solution was injected; • Testing drug group (n=20): 30 μg/kg of rhNRG-1 β was administered for 3, 5 and 7 consecutive days as three difference therapeutic courses with 20 animals assigned for each group; • Placebo control group (n=20): Intra-abdominal injection of non-CVB3 freeze-thaw cellular supernatant, 0.2 ml/animal. 10.2 Dosage Set Up, Preparation of Testing Drug, Route of Drug Administration, Times of Drug Administration, Concentration and Volume of the Testing Drug • rhNRG-1β was diluted with preparation buffer solution (10 mM PB, 0.2% human serum albumin, 5% mannitol to needed concentration; • Three drug administration groups were set up, intravenous injection for consecutive 3-day, 5-day and 7-day, drug volume for each dose was 0.2 ml/animal; • Drug administration of the model group was intravenous injection into the tail vein of mice, once every day (qd), for consecutive 7 days, drug volume for each dose was 0.2 ml/animal. 7.3 Method of the Experiment 7.3.1 Set Up of Acute Viral Myocariditis Animal Model in Mice"}, "[3]": {"conditions": "7.5 μg/kg iv qd × 5, 7th day, (I)"}, "[4]": {"conditions": "7.5 μg/kg iv qd × 5, 7th day, (II)"}, "[5]": {"conditions": "15 μg/kg iv qd × 5, 7th day, (I)"}, "[6]": {"conditions": "15 μg/kg iv qd × 5, 7th day, (I), listed as rhNRG-1β"}, "[7]": {"conditions": "15 μg/kg iv qd × 5, 7th day, (II)"}, "[8]": {"conditions": "30 μg/kg iv qd × 3, 7th day, (I)"}, "[9]": {"conditions": "30 μg/kg iv qd × 3, 7th day, (I), listed as rhNRG-1β"}, "[10]": {"conditions": "30 μg/kg iv qd × 3, 7th day, (II)"}, "[11]": {"conditions": "30 μg/kg iv qd × 5, 7th day, (I)"}, "[12]": {"conditions": "30 μg/kg iv qd × 5, 7th day, (I), listed as hNRG-1β"}, "[13]": {"conditions": "30 μg/kg iv qd × 5, 7th day, (II)"}, "[14]": {"conditions": "30 μg/kg iv qd × 5, 7th day, Example 5 (I)"}, "[15]": {"conditions": "30 μg/kg iv qd × 5, 7th day, Example 5 (I), listed as rhNRG-1β"}, "[16]": {"conditions": "30 μg/kg iv qd × 5, 7th day, Example 5 (II)"}, "[17]": {"conditions": "30 μg/kg iv qd × 7, 7th day, (I)"}, "[18]": {"conditions": "30 μg/kg iv qd × 7, 7th day, (I), listed as rhNRG-1β"}, "[19]": {"conditions": "30 μg/kg iv qd × 7, 7th day, (II)"}}}
{"molecule": "B1", "values": [{"measurement": "red stained (ischemic hypoxic) tissue, Nagar-Oslen stain", "setting": "[1]; 5 μg/kg", "value": "patchy distribution"}, {"measurement": "red stained (ischemic hypoxic) tissue, Nagar-Oslen stain", "setting": "[1]; 10 μg/kg", "value": "patchy distribution"}, {"measurement": "red stained (ischemic hypoxic) myocardial cells, Nagar-Oslen stain", "setting": "[1]; 20 μg/kg", "value": "punctuate distribution"}, {"measurement": "EF", "setting": "[2]; [3]", "value": "78.1 ± 9.3", "unit": "%"}, {"measurement": "FS", "setting": "[2]; [3]", "value": "41.7 ± 9.6", "unit": "%"}, {"measurement": "LVDd", "setting": "[2]; [3]", "value": "0.191 ± 0.012", "unit": "cm"}, {"measurement": "LVDs", "setting": "[2]; [3]", "value": "0.114 ± 0.028", "unit": "cm"}, {"measurement": "EF", "setting": "[2]; [4]", "value": "71.9 ± 6.69", "unit": "%"}, {"measurement": "FS", "setting": "[2]; [4]", "value": "35.7 ± 5.60", "unit": "%"}, {"measurement": "LVDd", "setting": "[2]; [4]", "value": "0.213 ± 0.009", "unit": "cm"}, {"measurement": "LVDs", "setting": "[2]; [4]", "value": "0.133 ± 0.015", "unit": "cm"}, {"measurement": "EF", "setting": "[2]; [5]", "value": "86.0±2.9", "unit": "%"}, {"measurement": "FS", "setting": "[2]; [5]", "value": "50.7±4.3", "unit": "%"}, {"measurement": "LVDd", "setting": "[2]; [5]", "value": "0.189±0.008", "unit": "cm"}, {"measurement": "LVDs", "setting": "[2]; [5]", "value": "0.099±0.027", "unit": "cm"}, {"measurement": "EF", "setting": "[2]; [6]", "value": "81.3 ± 6.28", "unit": "%"}, {"measurement": "FS", "setting": "[2]; [6]", "value": "44.5 ± 8.27", "unit": "%"}, {"measurement": "LVDd", "setting": "[2]; [6]", "value": "0.189 ± 0.008", "unit": "cm"}, {"measurement": "LVDs", "setting": "[2]; [6]", "value": "0.099 ± 0.027", "unit": "cm"}, {"measurement": "EF", "setting": "[2]; [7]", "value": "81.6 ± 4.59", "unit": "%"}, {"measurement": "FS", "setting": "[2]; [7]", "value": "44.9 ± 5.68", "unit": "%"}, {"measurement": "LVDd", "setting": "[2]; [7]", "value": "0.201 ± 0.011", "unit": "cm"}, {"measurement": "LVDs", "setting": "[2]; [7]", "value": "0.114 ± 0.018", "unit": "cm"}, {"measurement": "EF", "setting": "[2]; [8]", "value": "73.1±6.6", "unit": "%"}, {"measurement": "FS", "setting": "[2]; [8]", "value": "36.7 ± 4.7", "unit": "%"}, {"measurement": "LVDd", "setting": "[2]; [8]", "value": "0.194 ± 0.008", "unit": "cm"}, {"measurement": "LVDs", "setting": "[2]; [8]", "value": "0.123±0.012", "unit": "cm"}, {"measurement": "EF", "setting": "[2]; [9]", "value": "73.1 ± 6.6", "unit": "%"}, {"measurement": "LVDs", "setting": "[2]; [9]", "value": "0.123 ± 0.012", "unit": "cm"}, {"measurement": "EF", "setting": "[2]; [10]", "value": "81.0 ± 5.4", "unit": "%"}, {"measurement": "FS", "setting": "[2]; [10]", "value": "43.9 ± 5.1", "unit": "%"}, {"measurement": "LVDd", "setting": "[2]; [10]", "value": "0.211 ± 0.016", "unit": "cm"}, {"measurement": "LVDs", "setting": "[2]; [10]", "value": "0.121 ± 0.016", "unit": "cm"}, {"measurement": "EF", "setting": "[2]; [11]", "value": "90.2±2.5", "unit": "%"}, {"measurement": "FS", "setting": "[2]; [11]", "value": "55.7±2.1", "unit": "%"}, {"measurement": "LVDd", "setting": "[2]; [11]", "value": "0.187±0.006", "unit": "cm"}, {"measurement": "LVDs", "setting": "[2]; [11]", "value": "0.085±0.009", "unit": "cm"}, {"measurement": "EF", "setting": "[2]; [12]", "value": "90.2 ± 2.5", "unit": "%"}, {"measurement": "FS", "setting": "[2]; [12]", "value": "55.7 ± 2.1", "unit": "%"}, {"measurement": "LVDd", "setting": "[2]; [12]", "value": "0.187 ± 0.006", "unit": "cm"}, {"measurement": "LVDs", "setting": "[2]; [12]", "value": "0.085 ± 0.009", "unit": "cm"}, {"measurement": "EF", "setting": "[2]; [13]", "value": "87.7 ± 3.76", "unit": "%"}, {"measurement": "FS", "setting": "[2]; [13]", "value": "51.8 ± 5.24", "unit": "%"}, {"measurement": "LVDd", "setting": "[2]; [13]", "value": "0.196 ± 0.011", "unit": "cm"}, {"measurement": "LVDs", "setting": "[2]; [13]", "value": "0.094 ± 0.011", "unit": "cm"}, {"measurement": "EF", "setting": "[2]; [14]", "value": "86.8±4.4", "unit": "%"}, {"measurement": "FS", "setting": "[2]; [14]", "value": "51.9±5.8", "unit": "%"}, {"measurement": "LVDd", "setting": "[2]; [14]", "value": "0.187 ± 0.006", "unit": "cm"}, {"measurement": "LVDs", "setting": "[2]; [14]", "value": "0.090±0.011", "unit": "cm"}, {"measurement": "EF", "setting": "[2]; [15]", "value": "86.8 ± 4.4", "unit": "%"}, {"measurement": "FS", "setting": "[2]; [15]", "value": "51.9 ± 5.8", "unit": "%"}, {"measurement": "LVDs", "setting": "[2]; [15]", "value": "0.090 ± 0.011", "unit": "cm"}, {"measurement": "EF", "setting": "[2]; [16]", "value": "85.8 ± 4.205", "unit": "%"}, {"measurement": "FS", "setting": "[2]; [16]", "value": "50.0 ± 6.350", "unit": "%"}, {"measurement": "LVDd", "setting": "[2]; [16]", "value": "0.199 ± 0.000", "unit": "cm"}, {"measurement": "LVDs", "setting": "[2]; [16]", "value": "0.100 ± 0.014", "unit": "cm"}, {"measurement": "EF", "setting": "[2]; [17]", "value": "87.0±3.3", "unit": "%"}, {"measurement": "FS", "setting": "[2]; [17]", "value": "51.8±5.1", "unit": "%"}, {"measurement": "LVDd", "setting": "[2]; [17]", "value": "0.192 ± 0.008", "unit": "cm"}, {"measurement": "LVDs", "setting": "[2]; [17]", "value": "0.092±0.012", "unit": "cm"}, {"measurement": "EF", "setting": "[2]; [18]", "value": "87.0 ± 3.3", "unit": "%"}, {"measurement": "FS", "setting": "[2]; [18]", "value": "51.8 ± 5.1", "unit": "%"}, {"measurement": "LVDs", "setting": "[2]; [18]", "value": "0.092 ± 0.012", "unit": "cm"}, {"measurement": "EF", "setting": "[2]; [19]", "value": "87.283 ± 1.694", "unit": "%"}, {"measurement": "FS", "setting": "[2]; [19]", "value": "52.367 ± 1.847", "unit": "%"}, {"measurement": "LVDd", "setting": "[2]; [19]", "value": "0.194 ± 0.017", "unit": "cm"}, {"measurement": "LVDs", "setting": "[2]; [19]", "value": "0.092 ± 0.008", "unit": "cm"}]}
